T1: FcγRIIa(R) extracellular domain, C-terminal His tag (human, UniProt P12318 34-217)
T1 construct: extracellular domain; also called 2aR
T1 sequence: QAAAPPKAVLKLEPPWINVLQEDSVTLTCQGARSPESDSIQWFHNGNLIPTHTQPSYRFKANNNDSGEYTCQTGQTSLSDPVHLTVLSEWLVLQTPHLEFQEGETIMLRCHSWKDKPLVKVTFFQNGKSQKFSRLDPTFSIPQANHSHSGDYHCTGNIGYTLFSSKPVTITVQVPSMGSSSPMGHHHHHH

T2: FcγRIIa(H) extracellular domain, C-terminal His tag (human, UniProt P12318 34-217)
T2 construct: extracellular domain; also called 2aH
T2 sequence: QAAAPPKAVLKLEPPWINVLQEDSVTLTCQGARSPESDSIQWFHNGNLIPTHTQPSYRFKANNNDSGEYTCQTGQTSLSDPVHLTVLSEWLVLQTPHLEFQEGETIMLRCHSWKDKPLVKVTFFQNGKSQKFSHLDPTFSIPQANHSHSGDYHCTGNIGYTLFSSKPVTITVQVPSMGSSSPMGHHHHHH

T3: FcγRIIb extracellular domain, C-terminal His tag (human, UniProt P31994 43-217)
T3 construct: extracellular domain; also called 2b
T3 sequence: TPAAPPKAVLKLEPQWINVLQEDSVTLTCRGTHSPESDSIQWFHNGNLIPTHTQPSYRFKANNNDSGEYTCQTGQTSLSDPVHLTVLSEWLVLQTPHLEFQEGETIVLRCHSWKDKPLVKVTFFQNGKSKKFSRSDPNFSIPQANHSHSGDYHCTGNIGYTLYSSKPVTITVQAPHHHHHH


Experiments:
Experiment in all cases: SPR; He Ab vs HeCon Ab (GpH7-A5/GpH7-B3/GpL16-k0)=100;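 also: surface plasmon resonance at 25 °C with the test antibody captured on a sensor chip via antigenic peptide, protein L or protein A/G and FcγR flowed over as analyte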
[1] = target: T4, FcγRIa extracellular domain, C-terminal His tag (human, UniProt P12314 16-292)
T4 construct: extracellular domain; also called 1a
Procedure: (§1) The antibody of interest was analyzed for its interaction with FcγR using a BiaCore™ T100, BiaCore™ A100, or BiaCore™ 4000 surface plasmon resonance system (GE Healthcare Japan Corp.). The running buffer used was HBS-EP+ (GE Healthcare Japan Corp.). The assay temperature was set to 25° C. The sensor chips used were: a chip prepared by immobilizing antigenic peptides onto Series S Sensor Chip CM5 (GE Healthcare Japan Corp.) by the amine coupling method; a chip prepared by immobilizing antigenic peptides biotinylated in advance onto Series S Sensor Chip SA (certified) (GE Healthcare Japan Corp.) through their interaction; a chip prepared by immobilizing protein L (ACTIGEN, BioVision, Inc.) onto Series S Sensor Chip CM5 (GE Healthcare Japan Corp.); and a chip prepared by immobilizing protein A/G (Thermo Fisher Scientific K.K.) onto Series S Sensor Chip CM5 (GE Healthcare Japan Corp.). The antibody of interest was captured onto any of these chips and allowed to interact with FcγR diluted with a running buffer. The antibody captured on the chip was washed off through the reaction of 10 mM glycine-HCl (pH 1.5) to regenerate the chip, which was repetitively used.

[2] = target: T1, FcγRIIa(R) extracellular domain, …
Procedure: as §1

[3] = target: T2, FcγRIIa(H) extracellular domain, …
Procedure: as §1

[4] = target: T3, FcγRIIb extracellular domain, …
Procedure: as §1

[5] = target: T5, FcγRIIIa extracellular domain, C-terminal His tag (human, UniProt P08637 17-208)
T5 construct: extracellular domain; also called 3a
T5 sequence (P08637 other isoform, or with tags, fused parts or gaps): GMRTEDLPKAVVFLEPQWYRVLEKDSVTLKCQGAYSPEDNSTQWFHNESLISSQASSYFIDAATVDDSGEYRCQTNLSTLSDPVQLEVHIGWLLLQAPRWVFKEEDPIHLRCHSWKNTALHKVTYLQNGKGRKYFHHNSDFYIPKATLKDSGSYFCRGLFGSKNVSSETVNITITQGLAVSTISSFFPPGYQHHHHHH
Procedure: as §1

T4 sequence (P12314 other isoform, or with tags, fused parts or gaps): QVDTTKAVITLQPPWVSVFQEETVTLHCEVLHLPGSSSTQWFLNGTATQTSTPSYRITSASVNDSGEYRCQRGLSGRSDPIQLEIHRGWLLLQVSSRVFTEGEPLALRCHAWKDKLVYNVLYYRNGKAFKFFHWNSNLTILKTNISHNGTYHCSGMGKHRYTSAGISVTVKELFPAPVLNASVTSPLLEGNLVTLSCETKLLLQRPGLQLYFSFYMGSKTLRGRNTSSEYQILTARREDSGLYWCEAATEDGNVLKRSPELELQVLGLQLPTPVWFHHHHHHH

Row | He/Con 1a [1] [%] | He/Con 2aR [2] [%] | He/Con 2aH [3] [%] | He/Con 2b [4] [%] | He/Con 3a [5] [%] | Binder
1 | 104 | 75.7 | 71.2 | 62.2 | 80.6 | GpH7-A5/GpH7-B3 variant S298_15Y/GpL16-k0 (antibody, human IgG1, kappa, heterodimerized IgG1, one H chain mutated; also called He Ab; copies: 1 + 1 + 2) heavy 1: not shown heavy 2: not shown light: DIVMTQSPLSLPVTPGEPASISCQASESLVHSNRNTYLHWYLQKPGQSPQLLIYKVSNRFSGVPDRFSGSGSGTDFTLKISRVEAEDVGVYYCSQNTHVPPTFGQGTKVEIERTVAAPSVFIFPPSDEQLKSGTASVVCLLNNFYPREAKVQWKVDNALQSGNSQESVTEQDSKDSTYSLSSTLTLSKADYEKHKVYACEVTHQGLSSPVTKSFNRGEC
2 | 105 | 84.7 | 80.2 | 64.4 | 71.9 | GpH7-A5/GpH7-B3 variant S298_16H/GpL16-k0 (antibody, human IgG1, kappa, heterodimerized IgG1, one H chain mutated; also called He Ab; copies: 1 + 1 + 2) heavy 1: not shown heavy 2: not shown light: DIVMTQSPLSLPVTPGEPASISCQASESLVHSNRNTYLHWYLQKPGQSPQLLIYKVSNRFSGVPDRFSGSGSGTDFTLKISRVEAEDVGVYYCSQNTHVPPTFGQGTKVEIERTVAAPSVFIFPPSDEQLKSGTASVVCLLNNFYPREAKVQWKVDNALQSGNSQESVTEQDSKDSTYSLSSTLTLSKADYEKHKVYACEVTHQGLSSPVTKSFNRGEC
3 | 103 | 99.6 | 106 | 99.9 | 99.3 | GpH7-A5/GpH7-B3 variant S324_04F/GpL16-k0 (antibody, human IgG1, kappa, heterodimerized IgG1, one H chain mutated; also called He Ab; copies: 1 + 1 + 2) heavy 1: not shown heavy 2: not shown light: DIVMTQSPLSLPVTPGEPASISCQASESLVHSNRNTYLHWYLQKPGQSPQLLIYKVSNRFSGVPDRFSGSGSGTDFTLKISRVEAEDVGVYYCSQNTHVPPTFGQGTKVEIERTVAAPSVFIFPPSDEQLKSGTASVVCLLNNFYPREAKVQWKVDNALQSGNSQESVTEQDSKDSTYSLSSTLTLSKADYEKHKVYACEVTHQGLSSPVTKSFNRGEC
4 | 97.3 | 110 | 106 | 117 | 95.5 | GpH7-A5/GpH7-B3 variant S324_08L/GpL16-k0 (antibody, human IgG1, kappa, heterodimerized IgG1, one H chain mutated; also called He Ab; copies: 1 + 1 + 2) heavy 1: not shown heavy 2: not shown light: DIVMTQSPLSLPVTPGEPASISCQASESLVHSNRNTYLHWYLQKPGQSPQLLIYKVSNRFSGVPDRFSGSGSGTDFTLKISRVEAEDVGVYYCSQNTHVPPTFGQGTKVEIERTVAAPSVFIFPPSDEQLKSGTASVVCLLNNFYPREAKVQWKVDNALQSGNSQESVTEQDSKDSTYSLSSTLTLSKADYEKHKVYACEVTHQGLSSPVTKSFNRGEC
5 | 97.7 | 113 | 108 | 128 | 101 | GpH7-A5/GpH7-B3 variant S324_03V/GpL16-k0 (antibody, human IgG1, kappa, heterodimerized IgG1, one H chain mutated; also called He Ab; copies: 1 + 1 + 2) heavy 1: not shown heavy 2: not shown light: DIVMTQSPLSLPVTPGEPASISCQASESLVHSNRNTYLHWYLQKPGQSPQLLIYKVSNRFSGVPDRFSGSGSGTDFTLKISRVEAEDVGVYYCSQNTHVPPTFGQGTKVEIERTVAAPSVFIFPPSDEQLKSGTASVVCLLNNFYPREAKVQWKVDNALQSGNSQESVTEQDSKDSTYSLSSTLTLSKADYEKHKVYACEVTHQGLSSPVTKSFNRGEC
6 | 96.2 | 109 | 107 | 125 | 101 | GpH7-A5/GpH7-B3 variant S324_07I/GpL16-k0 (antibody, human IgG1, kappa, heterodimerized IgG1, one H chain mutated; also called He Ab; copies: 1 + 1 + 2) heavy 1: not shown heavy 2: not shown light: DIVMTQSPLSLPVTPGEPASISCQASESLVHSNRNTYLHWYLQKPGQSPQLLIYKVSNRFSGVPDRFSGSGSGTDFTLKISRVEAEDVGVYYCSQNTHVPPTFGQGTKVEIERTVAAPSVFIFPPSDEQLKSGTASVVCLLNNFYPREAKVQWKVDNALQSGNSQESVTEQDSKDSTYSLSSTLTLSKADYEKHKVYACEVTHQGLSSPVTKSFNRGEC
7 | 106 | 90.9 | 88.9 | 74.3 | 70.6 | GpH7-A5/GpH7-B3 variant S298_19Q/GpL16-k0 (antibody, human IgG1, kappa, heterodimerized IgG1, one H chain mutated; also called He Ab; copies: 1 + 1 + 2) heavy 1: not shown heavy 2: not shown light: DIVMTQSPLSLPVTPGEPASISCQASESLVHSNRNTYLHWYLQKPGQSPQLLIYKVSNRFSGVPDRFSGSGSGTDFTLKISRVEAEDVGVYYCSQNTHVPPTFGQGTKVEIERTVAAPSVFIFPPSDEQLKSGTASVVCLLNNFYPREAKVQWKVDNALQSGNSQESVTEQDSKDSTYSLSSTLTLSKADYEKHKVYACEVTHQGLSSPVTKSFNRGEC

Source: US20260167699A1 (Chugai, published 2026)
